The values below come from article PMC10684580, “Unexpected dynamics in femtomolar complexes of binding proteins with peptides” (Nature Communications, 2023).

For test [1], the system named is N^AM4C. The test is described as follows: NMR line-shape simulation, N^AM4C peptide titration (three-state). The class given is binding. Conditions: three-state model, 310 K. The protocol:
(§1) The peptides were dissolved in NMR buffer to generate 10 mM stocks that were titrated in 0.1 molar equivalents steps to 250 μM dArmRPs in NMR buffer up to 1.5 equivalents, and then in 0.5 equivalents steps up to 5.5 equivalents. For each step, a [^15N,^1H]-HSQC experiment was recorded at 310 K with the other parameters described above.
The change of line-shape and peak positions in the [^15N,^1H]-HSQC spectra upon adding (KR)n was simulated using in-house written Mathematica notebooks. In principle, for the simple two-state process of ligand binding, described only by single kon and koff rates and the concentrations used, the modified Bloch McConnell equations[49] can be used. […]
For simplicity, the same transverse relaxation rate R2 was assumed for all protein states and the chemical shift of the partially unbound state PL^* to be the same as for the free protein, that is ΩP . ΩPL is the chemical shift of the bound state and L the equilibrium concentration of the free peptide. […] Thereby the k1,on and k1,off rate constants were chosen such that their ratio was in the range of the measured or predicted Kd values[21] and that all signals during the titration could be fitted well (see text, Supplementary Fig. 12). […]

The subject of test [2] is N^AM4C. The test is described as follows: [15N,1H]-HSQC peptide titration, N^AM4C/NM4C. The class given is binding. Conditions: 310 K, 250 μM dArmRP. Here is the method:
All experiments were recorded on Bruker Neo 600 or 700 MHz spectrometers, employing cryogenically cooled or Prodigy ^1H, ^13C, ^15N triple-resonance probes. Pulse field gradients with coherence selection[46] were applied to all heteronuclear ^15N,^1H experiments using standard Bruker pulse sequences, together with the Rance-Palmer method for sensitivity enhancement. All spectra were processed in TOPSPIN using cosine-bell-shifted window functions prior to Fourier transformation, and analyzed in CARA[48]. Chemical shift assignments were obtained from triple-resonance and HCCH-type 3D NMR experiments using the standard Bruker pulse-program library. […]
as §1
Assignments of the spectra required for CSPs were performed through segmental labeling as detailed in the Results section. […] CSPs were calculated using the following formula[50]9 δHf−δHb/1^2+δNf−δNb/4^2 where δH and δN represent the chemical shifts in the proton and nitrogen dimensions, respectively, while f and b represent the free and bound states, respectively. […]

For test [3], the target named is N^AM4C designed Armadillo repeat protein (dArmRP) with the redesigned N^A (artificial) cap, four identical internal modules M and the C cap. In words: NMR titration; [15N,1H]-HSQC chemical shift perturbations; 10 mM peptide stock titrated in 0.1 equivalent steps to 250 uM dArmRP in NMR buffer up to 1.5 equivalents, then 0.5 equivalent steps up to 5.5 equivalents; 310 K.

The target in test [4] is N^YM7C designed Armadillo repeat protein (dArmRP) with the N^Y cap, seven identical internal modules M and the C cap. The test is described as above.
Test [5] has as its target N^AM7C designed Armadillo repeat protein (dArmRP) with the N^A cap, seven identical internal modules M and the C cap. The test is described as follows: NMR titration; line-shape simulation of traces from [15N,1H]-HSQC titrations; three-state model P + L = PL = PL*; parameters adjusted by visual inspection, k1,on and k1,off chosen so that their ratio fits the measured or predicted Kd.

Test [6] has as its target N^AM4C designed Armadillo repeat protein (dArmRP) with the redesigned N^A (artificial) cap, four identical internal modules M and the C cap. The description is as above.
Test [7] addresses mCherry-tagged N^YM7C. In words: FRET or BRET; FRET-based stopped-flow assay; 20 nM GFP-tagged peptide mixed 1:1 (volume) with 50-250 nM mCherry-tagged NM7C for kon; koff from competition: preincubated 50 nM tagged peptide and 40 nM tagged protein mixed 1:1 with 2 uM unlabeled competitor.

As for (Lys-Arg)4 [(KR)4], in test [1], the “k2 (isomerization of bound state, PL to PL*)” value is listed as 30 s^–1 and the “k2’ (PL* to PL)” value is 700 s^–1. Also, the “peptide required for full saturation” value in test [2] came out at 1.3 equiv.
Turning to Ac-KRKRKRKRKRKRKR-OH [(KR)7 peptide], the equivalents of peptide required for full saturation in test [3] amounted to 1 equiv. Besides, the equivalents of peptide required for full saturation in test [4] was determined as 1 equiv. In test [5], the k1,off (step 1, overall unbinding; line-shape simulation parameter) is 0.0003 s^–1; the k1,on (step 1, overall binding; line-shape simulation parameter) is 6.2e+08 M^–1·s^–1; the k2 (step 2, exchange in the bound state, PL to PL*) was 30 s^–1; the k2’ (step 2, exchange in the bound state, PL* to PL) was 100 s^–1.
Consider Ac-KRKRKRKR-OH [(KR)4 peptide, (Lys-Arg)4 octapeptide], for which the equivalents of peptide required for full saturation in test [3] is 1.3 equiv. For the same molecule, in test [6], the k1,off (step 1, overall unbinding; line-shape simulation parameter) is 300 s^–1; the k1,on (step 1, overall binding; line-shape simulation parameter) was 1e+09 M⁻¹ s⁻¹; the k2 (step 2, exchange in the bound state, PL to PL*) was 30 s^–1; the k2’ (step 2, exchange in the bound state, PL* to PL) is 700 s^–1.
KRKRKRKR [GFP-tagged (KR)4 peptide] gave a koff in test [7] of 0.23 s⁻¹.
